Key:
FtsZ (Bacillus subtilis) = FtsZ (Bacillus subtilis) (UniProt P17865); conditions: cited from earlier work
[1] = target: ClpXP complex (B. subtilis) (UniProt P50866)

| in vitro ClpXP proteolysis assay with 5 mM ATP: percent of purified His-UgtP degraded after 45 min, by anti-His immunoblot [1] [%] | in vitro ClpXP proteolysis assay without ATP: percent of purified His-UgtP degraded, by anti-His immunoblot [1] [%] | Molecule | Kd (FtsZ (Bacillus subtilis)) [nM] |
| --- | --- | --- | --- |
| – | – | UgtP (from UniProt P54166) | 38 |
| 88 | 13 | His-UgtP (enzyme) MNTNKRVLILTANYGNGHVQVAKTLYEQCVRLGFQHVTVSNLYQESNPIVSEVTQYLYLKSFSIGKQFYRLFYYGVDKIYNKRKFNIYFKMGNKRLGELVDEHQPDIIINTFPMIVVPEYRRRTGRVIPTFNVMTDFCLHKIWVHENVDKYYVATDYVKEKLLEIGTHPSNVKITGIPIRPQFEESMPVGPIYKKYNLSPNKKVLLIMAGAHGVLKNVKELCENLVKDDQVQVVVVCGKNTALKESLSALEAENGDKLKVLGYVERIDELFRITDCMITKPGGITLTEATAIGVPVILYKPVPGQEKENANFFEDRGAAIVVNRHEEILESVTSLLADEDTLHRMKKNIKDLHLANSSEVILEDILKESEMMTAKQKAKVLS | – |
